Assay: yeast display, Sf9 membrane polyspecificity reagent, FACS + sequencing; frameworks hold sequencing errors
Outline: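 After 36–48 hours of galactose induction, yeast (Saccharomyces cerevisiae BJ5465) displaying a synthetic nanobody library were stained at 4 °C for 1 hour with 10% biotinylated, detergent-solubilized Sf9 membrane reagent. Streptavidin microbeads enriched the stained cells before FACS sorting into low and high (top ~1%) gates on anti-HA and streptavidin fluorescence. Each clone's polyreactivity label reflects its gate of origin.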

Row | Sequence | polyreactivity (PSR sort gate)
1 | QVHLVESGGGLVQAGGSLRLSCAASGSTFGSNAMGWYRQAPGKERELVAAIRGIVGSKYYADSVKGRFTISRDNAKNTVYLLMNSLKPEDTAVYYCAADIDFERDRYVYWGQGTQVTVSS | low polyreactivity
2 | QVHLVESGGGLVQAGGSLRLSCAASGSTFKRYAMGWYRPAPGKERELVAAIRRGGITNYADSVKGRFTISRDNAKNTVYLQMNSLKPEDTAVYYCAKDGVTYPYSYEYDYWGQGTQVTVSS | low polyreactivity
3 | QVHLVESGGGLVQAGGSLRLSCAASGSTFLANTMGWYRQAPGKERELVAAITRRGGSTRYADSVKGRFTISRDNAKNTVFLEMNSLKPEDTAVYYCAAPWFRDTRGYSLYDYWGQGTQVTVSS | high polyreactivity
4 | QVHLVESGGGLVQAGGSLRLSCAASGSTFQFNAMGWYRQAPGKERELVATISDGGSTSYADSVKGRFTISRDNAKNTVYLQMNSLKPEDTAVYFCARDRFYDFLRVDYWGQGTQVTVSS | low polyreactivity
5 | QVHLVESGGGLVQAGGSLRLSCAASGSTFRDYDMGWYRQAPGKERELVAAISLSGGLTHYADSVKGRFTISRDNGKNTVYLQMNSLKPEDTAVYYCAARNTGPVQYYYWGQGTQVTVSS | low polyreactivity
6 | QVHLVESGGGLVQAGGSLRLSCAASGSTFSGYAMGWDRQAPGKDREFVATITSTGSTNYADSVKGRFTSSRDNAKNTVYLQMNSLNPEENAVYYCHSRYWFVERYFLHYASVRYDYWGQGTKVTVSS | low polyreactivity
7 | QVHLVESGGGLVQAGGSLRLSCAASGSTFTSYAMGWYRQAPGKERELVATISKISGSTYYADSVKGRFTISRDNAKNTVYLQMNSLKPEDTAVYYCAAKQGWVQSSILWYRAYGTLNVRRERMDYWGQGTQVTVSS | high polyreactivity
8 | QVHLVESGGGLVQAGGSLRLSCAASGSTFYANAMGWYRQAPGKDRELVAVIRWSGGSTYYADSVKGRFTISRDNAKNTDYFQINSLKPEDTAVYYCNADFYRVAYLRRYSHFDYWGQGTQVTVSS | high polyreactivity
9 | QVHLVESGGGLVQAGGSLRLSCAASGSTFYIYAKGWYRQAPGKERELVAAIDWTGSTYYADSVKGRFTISRDNAKNTVYLQMNSLKPEDPAVYDCAAYYDLEDDSYRLNSWGQGTQVTVSS | high polyreactivity
10 | QVHLVESGGGLVQAGGSLRLSCAASGSTFYPYSMGWYRQAPGKERELVAAISSGGSTSYADSVKGRFTISRDNAKNTVYLQMNSLKPDDTAVYYCAALYRIFSYDYWGQGTQVTVSS | low polyreactivity
11 | QVHLVESGGGLVQAGGSLRLSCAASGSTIRYYAMGWYRQAPGKERELVAAITKSGGSTYYADSVKGRFTISRDNAKNTVYLQMNSLKPEDTAVYYCAAFRRWYYPALSEHDYWGQGTQGTVSS | low polyreactivity
12 | QVHLVESGGGLVQAGGSLRLSCAASGSTIVRYGMGWYRQAPGKERELVAAITSTGDSTYYADSVKGRFTISRDNAKNTVYLQMNSLKPEDTAVYYCATQSSVLSWWYDYWGQGTEVTVSS | low polyreactivity
13 | QVHLVESGGGLVQAGGSLRLSCAASGSTSAYYVMGWYRQAPGKERELVAAIDFSGDSTYYADSVKGRFTISRDNAKNTVYLQMNSLKPEDTAVYYCAAELFYYSSLVTYEYWGQGTQVTVSS | high polyreactivity
14 | QVHLVESGGGLVQAGGSLRLSCAASGTIFGEYAMGWYRQAPGKERELVARISVSGTGTYYADSVKGRFTISRVNAKNTVYLQMNSLKPEDTAVYYSATRLYTIRWGGVSYDYDYWGQGTQVTVSS | high polyreactivity
15 | QVHLVESGGGLVQAGGSLRLSCAASGTTFGDYAMGWYRQAPGKERELVAAISLSAGSTYYADSVKGRFTISRDNAKNTVYLQMNSLKPEDTAVYYCAAEYQYHWAYIYYYWGQGTQVTLSS | high polyreactivity
16 | QVHLVESGGGLVQAGGSLRLSCAASGVIFSSYAMGWYRQAPGKERELVAAISTGDGSTTYADSVKGRFTISRDNAKNTVYLQMNSLIPEDTAVYYCNVKYRSSYRTDFDYWGQGTQVTVSS | low polyreactivity
17 | QVHLVESGGGLVQAGGSLRLSCAASGYIFRRYAMGWYRQAPGKERELVAAISFSGGSTYYADSVKGRFTISRDNAKNSVYIQMNSLKPDDTAVYYCAGLSLLRYDYWGQGTQVTVSS | high polyreactivity
18 | QVHLVESGGGLVQAGGSLRLSCAASGYTFGYYTMGWYRQAPGKERELFASIDSGGGTNYADSVKGRFTISRDNAKNTVFLQMNSLKPEETAVYYCAVDSYQTGVYFYYVYWDFDLGYWGQVTQVTVSS | low polyreactivity
19 | QVHLVESGGGLVQAGGSLRLSCAASGYTFRYYAMGWYRQAPGKERELVAAINWSGGSTYYADSVKGRFTISRDNAKNTVYLQMNSLTPEDTAVYYCAADPDGDLDIDYDYWGQGTQVTVSS | low polyreactivity
20 | QVHLVESGGGLVQAGGSLRLSCAASRGIFHYYAMGWYRQAPGNERELVAAISWNTGSTYYADSVKGRFTISRDNAKNTVYLQMNSLKPEDTAVYYCAASYRSPWMRYDYWGQGTQVTVSS | high polyreactivity

Row | Sequence | polyreactivity (PSR sort gate)
21 | QVHLVESGGGLVQAGGSLRLSCAATGRIFVPYVMGWYRQAPGKERELVASISDSDTSTYYADSVKGRFTISRDNAKNTVYLQMNSLKPEDNAVYYCNVDYWGQGTQVTVSS | low polyreactivity
22 | QVHLVESGGGLVQAGGSLRLSCAATGSIFDQNAMGWYRQAHGKVRELVAAITRGGSTKYADSVKGRFTISRDNAKNTVYLQMNSLKPEDTAVYYCARTARRRYQPYEYWGQGTQVTVSS | low polyreactivity
23 | QVHLVESGGGLVQAGGSLRLSCAATGSTFPNAMGWYRQAPGKERELVAAITYGGGSTYYADSVKGRFTISRDNAKNTVYLQMNSLIPEDTAVYYCNAPSRLSTIFYSGYDYWGQGTQVTVSS | low polyreactivity
24 | QVHLVESGGGLVQAGGSLRLSCAATGSTFRYNAMGWYRQAPGKERELVAAISWRGGSTYYADSVKGRFTISRDNAKNTVYLQMNSLKPEDTAVYYCAADRYPSTTYPLSDYNYWGQGTQVTVSS | high polyreactivity
25 | QVHLVESGGGLVQAGGSLRLSCAATGYIFDSYAMGWYRPAPGKEREFVAAISGSDGSTYYADSVKGRFTISRDNAKNTVYLQMNSLKPEDTAVYYCAADPYYGEMEYWGQGTQVTVSS | low polyreactivity
26 | QVHLVESGGGLVQAGGSLRLSCADSGFIFWSYVMGWNRQAPGKESELVAAIDYSGASTYYADSVKGRFTISRDNAKNTVSLQMNSLKPEDTAVYYCNAVAYYPYGYDYWGQGTQVTVSS | low polyreactivity
27 | QVHLVESGGGLVQAGGSLRLSCADSGRTFGTYAMGWYRQAPGKERELVAAISSGGSTYADSVKGRFTISRDNAKNTVYLQMNSLKPVDTAVYYCNADFSARNYHYYPRRFKYYYWGQGTQVTVSS | high polyreactivity
28 | QVHLVESGGGLVQAGGSLRLSCDASGFTFYWYAMGWYRQPPGKERELVAAISNRGGSKYYADSVKGRFTISRDNAKNTVYLQMNSLKPEDTAVYYCGAEWYGRMYYWGQGTQVTVSS | high polyreactivity
29 | QVHLVESGGGLVQAGGSLRLSCDASGSIFTYYAIGWYRPAPGKERELVAAITNGVDSTYYADSVKGRFTISRDNAKNTVYLQINSLKPEDTAVYYCNADTVVEWFSPSREYDYWGQGTQVTVSS | low polyreactivity
30 | QVHLVESGGGLVQAGGSLRLSFAASGRIFYYNAMGWYRQAHGKERELVAAIRGGCSTNYADSVKGRFTISRDNAKNTVYLQMNSLKPEDTAVYYCNTAVWGPHRYDYWGQGTQVTVSS | low polyreactivity
31 | QVHLVESGGGLVQAGGSLRLSGAASGSISGLYAMGCYRQAPGKEREFVARIRWRGDSTYYADSVKGRFTISRDNAKNTVYLQMNSLKPEDTAVYYCAAGLYLFQIWFVNEYDYWGQGTQVTVSS | high polyreactivity
32 | QVHLVESGGGLVQAGGSLRLSSAASGNIFESYALGWYRQAPGKERELVAAISGSGDSTNYADSVKGRFTISRDNAKNSVYLQMNSLKPEDTAVYYCAARPEVRHQYRRYDYWGQGTQVTVSS | low polyreactivity
33 | QVHLVESGGGLVQAGGSLRLSSAASGRTFTAYTMGSYRQAPGKEREMVASISSGVTYADSVKGRFTISRDNAKNTVYLQMNSLKTVDTAVYYCAARLWYVQGYVPYVHHRFDYWGQGTQVTVSS | low polyreactivity
34 | QVHLVESGGGLVQAGGSLRLSSAASGSIFIIYAMGWYRQAPGKERELVADITCRGGDTYYADSVKGRFTISRDNAKNTVYLQMNSLKPEDTAVYYCAARAGYPYTVQDVGVSAYDYWGQGTQVTVSS | low polyreactivity
35 | QVHLVESGGGLVQAGGSLRLTCAASGFIFEYNAMGCYRQAPGKEREFVAAITSSGGSTYYADSVIGRFTISRDNAKNTVYLQMNSLKPEDTAVYYCARVRRSAYYKDYYYWGQGTQVTVSS | high polyreactivity
36 | QVHLVESGGGLVQAGGSLRLTCAASGRIFAHYAMGWYRQAPGKERELVAAISSGGSTYYADSVKGRFTISRDNAKNTVYLQMNSVKPEDTAVYYCNKRPVRRKYDYWGQGTQVTVSS | low polyreactivity
37 | QVHLVESGGGLVQAGGSLRLTCAASGRIFSSYAMGWYRQAPGKVRELVPAITRGGSTYYADSVKGRFTISRDNAKYTVYLQMNSLKPEDTGVYYCAGRQPYRYWFWGNEDFWGQGSQVTVSS | high polyreactivity
38 | QVHLVESGGGLVQAGGSLRLTCAASGRILWSYAMGWYRQAPGKERELVAAITSGTRTNYADSVKGRFTISRDNAKNTVYLQMNSVKPEDTAVFSCNAVSLRYRFDYWGQGTQLTVSS | high polyreactivity
39 | QVHLVESGGGLVQAGGSLRLTCAASGRTFGRYAMGWYRQAPGKERELVAAIRYTGGSTYADSVKGRFTISRDNAKNTVYLQMNSLKPEDTAVYYCNRGGAFNTRNEITRYGYWGQVTQVTVSS | low polyreactivity
40 | QVHLVESGGGLVQAGGSLRLTCAASGRTFGWNVMGWYRQAPGKERELVAAISGSGGSTYYADSVKGRFTISRDNAKNTVYLQMNSLKPEDTAVYYCAALYGPGREYDYWGQGTQVTVSS | low polyreactivity

Reference: the nanobody polyreactivity screen of Harvey et al. (2022)
